Targets include His-Prs-K182A (E. coli, UniProt P0A717 1-315, K182A); His-PrsK194A (E. coli, UniProt P0A717 1-315, K194A); His-Prs-K231A (E. coli, UniProt P0A717 1-315, K231A); His6-Prs (E. coli, UniProt P0A717 1-315).
What all share (experiment): pull-down

B1: CobB (enzyme, E. coli, UniProt P75960 1-279, looked up)
chain: MLSRRGHRLSRFRKNKRRLRERLRQRIFFRDKVVPEAMEKPRVLVLTGAGISAESGIRTFRAADGLWEEHRVEDVATPEGFDRDPELVQAFYNARRRQLQQPEIQPNAAHLALAKLQDALGDRFLLVTQNIDNLHERAGNTNVIHMHGELLKVRCSQSGQVLDWTGDVTPEDKCHCCQFPAPLRPHVVWFGEMPLGMDEIYMALSMADIFIAIGTSGHVYPAAGFVHEAKLHGAHTVELNLEPSQVGNEFAEKYYGPASQVVPEFVEKLLKGLKAGSIA
B1: the binding result with His-Prs-K182A, in the assay with His-PrsK194A, with His-Prs-K231A and with His6-Prs was “binds” each time.

B2: acetylated CobB (enzyme, E. coli, UniProt P75960 1-279, looked up)
chain: MLSRRGHRLSRFRKNKRRLRERLRQRIFFRDKVVPEAMEKPRVLVLTGAGISAESGIRTFRAADGLWEEHRVEDVATPEGFDRDPELVQAFYNARRRQLQQPEIQPNAAHLALAKLQDALGDRFLLVTQNIDNLHERAGNTNVIHMHGELLKVRCSQSGQVLDWTGDVTPEDKCHCCQFPAPLRPHVVWFGEMPLGMDEIYMALSMADIFIAIGTSGHVYPAAGFVHEAKLHGAHTVELNLEPSQVGNEFAEKYYGPASQVVPEFVEKLLKGLKAGSIA
modifications: acetyl-lysines (acetylated in vitro with acetyl phosphate); positions are in Supplementary Table 2
B2: in the assay with His6-Prs, the binding result is on record as “binds”.

The values above are taken from publication doi:10.1101/2020.12.09.417477 (bioRxiv, 2020).
